Data published in patent US20120238493A1 (INDIANA UNIVERSITY RESEARCH AND TECHNOLOGY, published 2012).
Read-outs that look alike come from different tables or passages of the source. *1 amine or outer side, *2 acyl side, *3 side chain or, on linkers, in order; H or OH if unused. Where no end group is shown, it is not given here. Side-chain parts run from the residue outwards. [ ]: non-standard residue; d: D form. The star is where a group is joined. γGlu = O=C(O)[C@H](CCC(=O)[*:2])N[*:1]; Palmitoyl = CCCCCCCCCCCCCCCC(=O)*; Aib = CC(C)(N)C(=O)O

T1: GIP receptor (UniProt P48546 22-466, limits assumed)
T1 sequence (looked up): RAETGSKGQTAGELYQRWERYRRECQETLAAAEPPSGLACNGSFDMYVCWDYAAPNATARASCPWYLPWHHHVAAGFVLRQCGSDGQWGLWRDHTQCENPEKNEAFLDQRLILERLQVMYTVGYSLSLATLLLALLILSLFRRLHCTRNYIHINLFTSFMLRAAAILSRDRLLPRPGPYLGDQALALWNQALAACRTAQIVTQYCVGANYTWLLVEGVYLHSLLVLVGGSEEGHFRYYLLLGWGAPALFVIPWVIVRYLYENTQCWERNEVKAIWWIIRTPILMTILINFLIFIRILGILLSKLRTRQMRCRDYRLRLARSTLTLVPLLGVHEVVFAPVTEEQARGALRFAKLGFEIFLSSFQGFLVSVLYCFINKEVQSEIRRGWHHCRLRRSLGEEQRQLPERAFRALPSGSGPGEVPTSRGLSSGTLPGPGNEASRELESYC

B1: Analog No. 63: Aib2, E3, K10acyl, E16, L27, D28, G29 + CEX (SEQ ID NO: 39) (peptide)
peptide: H[Aib]EGTFTSDK([γGlu-Palmitoyl])SKYLDERAAQDFVQWLLDGGPSSGAPPPS-NH2
modifications: N-terminus assumed
SMILES: CCCCCCCCCCCCCCCC(=O)N[C@@H](CCC(=O)NCCCC[C@H](NC(=O)[C@H](CC(=O)O)NC(=O)[C@H](CO)NC(=O)[C@@H](NC(=O)[C@H](Cc1ccccc1)NC(=O)[C@@H](NC(=O)CNC(=O)[C@H](CCC(=O)O)NC(=O)C(C)(C)NC(=O)[C@@H](N)Cc1c[nH]cn1)[C@@H](C)O)[C@@H](C)O)C(=O)N[C@@H](CO)C(=O)N[C@@H](CCCCN)C(=O)N[C@@H](Cc1ccc(O)cc1)C(=O)N[C@@H](CC(C)C)C(=O)N[C@@H](CC(=O)O)C(=O)N[C@@H](CCC(=O)O)C(=O)N[C@@H](CCCNC(=N)N)C(=O)N[C@@H](C)C(=O)N[C@@H](C)C(=O)N[C@@H](CCC(N)=O)C(=O)N[C@@H](CC(=O)O)C(=O)N[C@@H](Cc1ccccc1)C(=O)N[C@H](C(=O)N[C@@H](CCC(N)=O)C(=O)N[C@@H](Cc1c[nH]c2ccccc12)C(=O)N[C@@H](CC(C)C)C(=O)N[C@@H](CC(C)C)C(=O)N[C@@H](CC(=O)O)C(=O)NCC(=O)NCC(=O)N1CCC[C@H]1C(=O)N[C@@H](CO)C(=O)N[C@@H](CO)C(=O)NCC(=O)N[C@@H](C)C(=O)N1CCC[C@H]1C(=O)N1CCC[C@H]1C(=O)N1CCC[C@H]1C(=O)N[C@@H](CO)C(N)=O)C(C)C)C(=O)O
B2: Analog No. 62: Aib2, E3, K10acyl, E16, Aib20, E21, L27, D28, G29 + CEX (SEQ ID NO: 38) (peptide)
peptide: H[Aib]EGTFTSDK([γGlu-C16])SKYLDERRA[Aib]EFVQWLLDGGPSSGAPPPS-NH2
B3: Glucagon Aib2, K12(rErEC16), Aib16, amide (SEQ ID NO: 45) (peptide)
peptide: H[Aib]QGTFTSDYSKYLD[Aib]RRAQDFVQWLMNT-NH2
modifications: not fully specified (residue 12)
B4: peptide of SEQ ID NO: 89 (peptide)
peptide: H[Aib]QGTFTSDYSKYLDERAAQDFVQWLLDGGPSSGAPPPSK([γGlu-γGlu-Palmitoyl])G-NH2
modifications: not fully specified
B5: Glucagon Aib2, K9(rErEC16), Aib16, amide (SEQ ID NO: 43) (peptide)
peptide: H[Aib]QGTFTSKYSKYLD[Aib]RRAQDFVQWLMNT-NH2
modifications: not fully specified (residue 9)
B6: peptide of SEQ ID NO: 171 (peptide)
peptide: H[Aib]EGTFTSDYSKYLDERAAQDFVQWLLDGGPSSGAPPPSK([γGlu-γGlu-Palmitoyl])G-NH2
B7: Analog No. 30: Aib2, K10acyl, E16, A18, L27, D28, G29 + CEX (SEQ ID NO: 28) (peptide)
peptide: H[Aib]QGTFTSDK([γGlu-Palmitoyl])SKYLDERAAQDFVQWLLDGGPSSGAPPPS-NH2
B8: Analog No. 61: Aib2, K10acyl, E16, Aib20, E21, L27, D28, G29 + CEX (SEQ ID NO: 37) (peptide)
peptide: H[Aib]QGTFTSDK([γGlu-Palmitoyl])SKYLDERRA[Aib]EFVQWLLDGGPSSGAPPPS-NH2
modifications: N-terminus assumed
SMILES: CCCCCCCCCCCCCCCC(=O)N[C@@H](CCC(=O)NCCCC[C@H](NC(=O)[C@H](CC(=O)O)NC(=O)[C@H](CO)NC(=O)[C@@H](NC(=O)[C@H](Cc1ccccc1)NC(=O)[C@@H](NC(=O)CNC(=O)[C@H](CCC(N)=O)NC(=O)C(C)(C)NC(=O)[C@@H](N)Cc1c[nH]cn1)[C@@H](C)O)[C@@H](C)O)C(=O)N[C@@H](CO)C(=O)N[C@@H](CCCCN)C(=O)N[C@@H](Cc1ccc(O)cc1)C(=O)N[C@@H](CC(C)C)C(=O)N[C@@H](CC(=O)O)C(=O)N[C@@H](CCC(=O)O)C(=O)N[C@@H](CCCNC(=N)N)C(=O)N[C@@H](CCCNC(=N)N)C(=O)N[C@@H](C)C(=O)NC(C)(C)C(=O)N[C@@H](CCC(=O)O)C(=O)N[C@@H](Cc1ccccc1)C(=O)N[C@H](C(=O)N[C@@H](CCC(N)=O)C(=O)N[C@@H](Cc1c[nH]c2ccccc12)C(=O)N[C@@H](CC(C)C)C(=O)N[C@@H](CC(C)C)C(=O)N[C@@H](CC(=O)O)C(=O)NCC(=O)NCC(=O)N1CCC[C@H]1C(=O)N[C@@H](CO)C(=O)N[C@@H](CO)C(=O)NCC(=O)N[C@@H](C)C(=O)N1CCC[C@H]1C(=O)N1CCC[C@H]1C(=O)N1CCC[C@H]1C(=O)N[C@@H](CO)C(N)=O)C(C)C)C(=O)O
B9: Glucagon Aib2, Aib16, amide (SEQ ID NO: 42) (peptide)
peptide: H[Aib]QGTFTSDYSKYLD[Aib]RRAQDFVQWLMNT-NH2
modifications: N-terminus assumed
SMILES: CSCC[C@H](NC(=O)[C@H](CC(C)C)NC(=O)[C@H](Cc1c[nH]c2ccccc12)NC(=O)[C@H](CCC(N)=O)NC(=O)[C@@H](NC(=O)[C@H](Cc1ccccc1)NC(=O)[C@H](CC(=O)O)NC(=O)[C@H](CCC(N)=O)NC(=O)[C@H](C)NC(=O)[C@H](CCCNC(=N)N)NC(=O)[C@H](CCCNC(=N)N)NC(=O)C(C)(C)NC(=O)[C@H](CC(=O)O)NC(=O)[C@H](CC(C)C)NC(=O)[C@H](Cc1ccc(O)cc1)NC(=O)[C@H](CCCCN)NC(=O)[C@H](CO)NC(=O)[C@H](Cc1ccc(O)cc1)NC(=O)[C@H](CC(=O)O)NC(=O)[C@H](CO)NC(=O)[C@@H](NC(=O)[C@H](Cc1ccccc1)NC(=O)[C@@H](NC(=O)CNC(=O)[C@H](CCC(N)=O)NC(=O)C(C)(C)NC(=O)[C@@H](N)Cc1c[nH]cn1)[C@@H](C)O)[C@@H](C)O)C(C)C)C(=O)N[C@@H](CC(N)=O)C(=O)N[C@H](C(N)=O)[C@@H](C)O

Columns and labels:
Experiment in all cases: cell-based or functional assay
GIP receptor [1] = target: T1, GIP receptor
GIP receptor [2] = target: T1, GIP receptor; remark: listed apart in the source
GLP-1 receptor [3] = target: T2, GLP-1 receptor (UniProt P43220 24-463, limits assumed)
glucagon receptor [4] = target: T3, glucagon receptor (UniProt P47871 26-477, limits assumed)
GIP receptor [5] = target: T1, GIP receptor; remark: listed apart in the source
GLP-1 receptor [6] = target: T2, GLP-1 receptor; remark: listed apart in the source
glucagon receptor [7] = target: T3, glucagon receptor; remark: listed apart in the source
GIP receptor [8] = target: T1, GIP receptor; remark: listed apart in the source
GLP-1 receptor [9] = target: T2, GLP-1 receptor; remark: listed apart in the source
glucagon receptor [10] = target: T3, glucagon receptor; remark: listed apart in the source
GIP receptor [11] = target: T1, GIP receptor; remark: listed apart in the source
GLP-1 receptor [12] = target: T2, GLP-1 receptor; remark: listed apart in the source
glucagon receptor [13] = target: T3, glucagon receptor; remark: listed apart in the source
GIP receptor [14] = target: T1, GIP receptor; remark: listed apart in the source
GLP-1 receptor [15] = target: T2, GLP-1 receptor; remark: listed apart in the source
glucagon receptor [16] = target: T3, glucagon receptor; remark: listed apart in the source
GIP receptor [17] = target: T1, GIP receptor; remark: listed apart in the source
GLP-1 receptor [18] = target: T2, GLP-1 receptor; remark: listed apart in the source
glucagon receptor [19] = target: T3, glucagon receptor; remark: listed apart in the source
GIP receptor [20] = target: T1, GIP receptor; remark: listed apart in the source
GLP-1 receptor [21] = target: T2, GLP-1 receptor; remark: listed apart in the source
glucagon receptor [22] = target: T3, glucagon receptor; remark: listed apart in the source
GIP receptor [23] = target: T1, GIP receptor; remark: listed apart in the source

T3 sequence (P47871 26-477 limits assumed): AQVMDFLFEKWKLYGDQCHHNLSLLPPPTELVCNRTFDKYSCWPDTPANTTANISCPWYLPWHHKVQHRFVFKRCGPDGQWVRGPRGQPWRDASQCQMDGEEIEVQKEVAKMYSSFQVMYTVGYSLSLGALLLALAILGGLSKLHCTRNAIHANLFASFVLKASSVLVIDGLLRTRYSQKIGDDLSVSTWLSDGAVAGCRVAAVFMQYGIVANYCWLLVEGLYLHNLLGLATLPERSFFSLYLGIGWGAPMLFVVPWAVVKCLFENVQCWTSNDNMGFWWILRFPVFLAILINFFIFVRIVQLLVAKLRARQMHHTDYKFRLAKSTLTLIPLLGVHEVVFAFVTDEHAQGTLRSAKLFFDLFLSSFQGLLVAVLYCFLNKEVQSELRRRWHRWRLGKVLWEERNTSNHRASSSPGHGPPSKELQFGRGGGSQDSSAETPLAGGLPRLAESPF

Molecule | EC50 (cAMP reporter) (GLP-1 receptor [3]) [pM] | EC50 (cAMP reporter) (glucagon receptor [4]) [nM] | EC50 (cAMP reporter) (GIP receptor [5]) [pM] | activity (cAMP reporter), column GLP (GLP-1 receptor [6]) | activity (cAMP reporter), column Glu (glucagon receptor [7]) | activity (cAMP reporter), column GIP (GIP receptor [8]) | EC50 (cAMP reporter) (GLP-1 receptor [9]) [nM] | EC50 (cAMP reporter) (glucagon receptor [10]) [nM] | EC50 (cAMP reporter) (GIP receptor [11]) [nM] | EC50 (cAMP reporter) (GLP-1 receptor [18]) [pM] | EC50 (cAMP reporter) (glucagon receptor [19]) [pM] | EC50 (cAMP reporter) (GIP receptor [20]) [nM] | also measured
Native GIP (SEQ ID NO: 2) (from UniProt P09681 52-93) (ligand) |  |  |  |  |  |  |  |  |  |  |  |  | EC50 (cAMP reporter) (GIP receptor [1]): 0.01 nM; EC50 (cAMP reporter) (GIP receptor [2]): 6.5 pM
B1 | 8 | 1.28 | 26 | 0.008 | 1.28 | 0.026 |  |  |  |  |  |  | 
B2 | 8 | 0.127 | 12 | 0.008 | 0.127 | 0.012 |  |  |  |  |  |  | 
B3 |  |  |  |  |  |  | 0.0205 | 0.0425 | 0.651 |  |  |  | 
B4 |  |  |  |  |  |  |  |  |  | 4 | 4 | 0.02 | EC50 (cAMP reporter) (GLP-1 receptor [12]): 5 pM; EC50 (cAMP reporter) (glucagon receptor [13]): 6 pM; EC50 (cAMP reporter) (GIP receptor [14]): 0.028 nM; EC50 (cAMP reporter) (GLP-1 receptor [15]): 2.1 pM; EC50 (cAMP reporter) (glucagon receptor [16]): 4.1 pM; EC50 (cAMP reporter) (GIP receptor [17]): 0.024 nM
B5 |  |  |  |  |  |  | 0.232 | 1.15 | 15.1 |  |  |  | 
B6 |  |  |  |  |  |  |  |  |  | 5 | 455 | 0.038 | 
B7 | 2 | 0.002 | 3 | 0.002 | 0.002 | 0.003 |  |  |  | 2 | 2 | 0.002 | EC50 (cAMP reporter) (GLP-1 receptor [12]): 4 pM; EC50 (cAMP reporter) (glucagon receptor [13]): 3 pM; EC50 (cAMP reporter) (GIP receptor [14]): 0.004 nM; EC50 (cAMP reporter) (GLP-1 receptor [15]): 2 pM; EC50 (cAMP reporter) (glucagon receptor [16]): 2 pM; EC50 (cAMP reporter) (GIP receptor [17]): 0.003 nM; EC50 (cAMP, nmole) (GLP-1 receptor [21]): 0.003 nmol; EC50 (cAMP, nmole) (glucagon receptor [22]): 0.004 nmol; EC50 (cAMP, nmole) (GIP receptor [23]): 0.007 nmol
B8 | 6 | 0.004 | 2 | 0.006 | 0.004 | 0.003 |  |  |  |  |  |  | 
B9 |  |  |  |  |  |  | 0.437 | 0.309 | 104 |  |  |  | 
